This passage reports amyloid nucleation score results from the supplement of paper PMC12042874.

± gives the uncertainty stated by the source.

A short description of this series: amyloid nucleation score (Sup35N fusion, yeast selection) (log enrichment); library NNK3; higher = more nucleation; inactive = no reads after selection. Put shortly:
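Nucleation score is defined as the DiMSum log enrichment of output over input reads, with centring on the mode score of non-aggregating sequences. A minimum of 100 input reads was required for each sequence. Reads came from Illumina sequencing of plasmid inserts from psi-negative yeast expressing Sup35N fused to peptides of 20 random codons, induced with 100 μM copper sulfate for 24 hours and grown 7 days at 30°C on medium lacking adenine and uracil.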

On to SGLKQSPQLVLCAVRPRRSN, for which the amyloid nucleation score entry is “inactive”.
Take SCYFGILQWSQSPYFHCPFT: the amyloid nucleation score result was “inactive”.
For the substance FGWLTPDMKFLCTYKQRISG, the amyloid nucleation score entry is “inactive”.
Consider REVMWKICFRKINYVGYSGK, for which the amyloid nucleation score result is “inactive”.
For the substance VAFTLDGKARDKYRNGDHNK, the amyloid nucleation score entry was “inactive”.
The result for AWVDLVLRGFKGYLTYRSLH reads “inactive”; that for TFPRERWDCPCKVIFRSVTP, “inactive”; that for LICYLYAKMC, “inactive”.
VSESSFRLCGGLRSGCLKSA: the amyloid nucleation score entry is “inactive”.
Take YIAVG: the amyloid nucleation score is -0.483 ± 0.75.
Consider ILVFVFSLRRIFAYMAVMSG, for which the amyloid nucleation score result was “inactive”.
The result for NSYKVLTYVFCQVRANTIYC reads 2.04 ± 0.059; that for VSALSGGFMENCCQSNFLTP, “inactive”; that for RWWVNSCMEIM, “inactive”.
Consider MRARLANKQGMGPRTRVASV, for which the amyloid nucleation score entry is “inactive”.
In the case of IARATFFINQR, the amyloid nucleation score turned out to be 1.43 ± 0.15.
On to EGRRPKYIGNESRYNMYHPY, for which the amyloid nucleation score result is “inactive”.
In the case of GLHVTCGRDYHGWMGDCSMA, the amyloid nucleation score result is “inactive”.
The result for VPKPD reads “inactive”; that for KISETGRCNSLCW, “inactive”.
With DAGLRLLYSSLTGRL, the amyloid nucleation score entry was “inactive”.
On to PREARQHRVRRTGFSVVFVS, for which the amyloid nucleation score result was “inactive”.
With LRVILQLYIEGLIVQ, the amyloid nucleation score entry is “inactive”.
For IDTVNFKVLHVGI, the amyloid nucleation score result is “inactive”.
Regarding VNLVLIISNPR, the amyloid nucleation score entry was “inactive”.
On to HCLLCNYRLWSACKCPGYVS, for which the amyloid nucleation score result is “inactive”.
For CMVSYASDTGGKESELACVV, the amyloid nucleation score entry was “inactive”.
For ADCPCYVTGCWLSYWMLYI, the amyloid nucleation score result is “inactive”.
The result for YKTRTKKVS reads “inactive”; that for DVSLVGSVMRIELLEMCVSR, “inactive”.
As for NRIVTVLMFCWLEG, the amyloid nucleation score entry was “inactive”.
Consider LCCRQVTFERDVVVRYRRRR, for which the amyloid nucleation score result was “inactive”.
Take MFLSWCKKVNLRMIILSSDT: the amyloid nucleation score entry is “inactive”.
GSKFIFFLMFYGVWLRSPSK: the amyloid nucleation score entry is “inactive”.
RESDMRSAWGSDVVCLLGDS displayed an amyloid nucleation score of 1.11 ± 0.15.
As to RVVCGNTGNVAIKKGLINMC, the amyloid nucleation score result is “inactive”.
Consider NTEGCSSQICRN, for which the amyloid nucleation score entry is “inactive”.
Substance TCLLFVTHFNWYNTLVEGTI registered an amyloid nucleation score of 0.989 ± 0.15.
In the case of FSRGLNHYNLYNFGGLCICT, the amyloid nucleation score was 2.91 ± 0.07.
LHVLDYDPDLRCFQMLYMCG: the amyloid nucleation score result is “inactive”.
With LTTESNLHVCVRRVGQLHLA, the amyloid nucleation score result was “inactive”.
In the case of GYQDAFIP, the amyloid nucleation score result is “inactive”.
As to WCTFKNLPLWYWTWCAFQGG, the amyloid nucleation score entry was “inactive”.
For RFKKVVHSFRFCAIENVLDY, the amyloid nucleation score entry is “inactive”.
For the substance FFLIEQFYTYWMGGIMMIQR, the amyloid nucleation score entry was “inactive”.
For the substance SYFTVHHSCLGHTTQHVMLS, the amyloid nucleation score entry is “inactive”.
The substance HGGIHCYFFYSYGDLEKEIL showed an amyloid nucleation score of 2.44 ± 0.078.
For the substance PGFLGVPTACPLVSYDAVYP, the amyloid nucleation score entry was “inactive”.
As to LMFNGILNQCSVMYLNRIYK, the amyloid nucleation score stood at 2.97 ± 0.081.
On to DGNKNYDVKFIRLVTNI, for which the amyloid nucleation score result is “inactive”.
The result for TYVGV reads “inactive”; that for RWNDKWGVDVRSLIIIFVGS, “inactive”.
Next, LCKIRECHCNLYHRVYMGWN: “inactive”.
Consider MRTRGQTFTWGHYGCLLIDE, for which the amyloid nucleation score entry is “inactive”.
Next, ALFSFDNSNYMVSNGAIGRV: -0.167 ± 0.75.
On to ICILADEYLMCGYGYFHFDY, for which the amyloid nucleation score result is “inactive”.
As for VVEPNTRVIWRLLHIDLDKQ, the amyloid nucleation score result is “inactive”.
Consider EGETTEVLTLVVWRKVINNS, for which the amyloid nucleation score entry is “inactive”.
For the substance WRTSMVASILRVRWEYLKWK, the amyloid nucleation score entry was “inactive”.
As for PSYFVI, the amyloid nucleation score result was “inactive”.
Next, SCVDPVRWLRGASF: “inactive”; LFMCIAMM: 0.284 ± 0.46; RIVGIYKGLLAD: “inactive”.
As for MILLLSGGCVTESFWG, the amyloid nucleation score entry was “inactive”.
For the substance SEIRGNRNMTTEAPT, the amyloid nucleation score result was “inactive”.
RTTINLLMCGHVMGFNSCLF had an amyloid nucleation score of 1.99 ± 0.084.
CIKIIIFNVERLVALIIVSL: the amyloid nucleation score result is “inactive”.
Consider DISQGLRRNSSGYLVQRGYA, for which the amyloid nucleation score entry is “inactive”.
Turning to IEFRLWYG, the amyloid nucleation score entry is “inactive”.
With YAGSCK, the amyloid nucleation score result was “inactive”.
Turning to FNLNESSGYVKFYLNGNRPL, the amyloid nucleation score entry was “inactive”.
STELYVNLDQVSPYSVRQLT: the amyloid nucleation score entry is “inactive”.
Next, RILTDGIIVLFL: “inactive”; RFYTSCVCHHLLIYYLIGSS: “inactive”; KVIRNTFIACCSV: 2.16 ± 0.07.
For HKRLMFDMYHPIWMFYCSAC, the amyloid nucleation score result is “inactive”.
Consider ACFEAICGYSTLSQ, for which the amyloid nucleation score result is “inactive”.
For the substance MGMFTNPT, the amyloid nucleation score entry was “inactive”.
With NVDGVVLDCLSSLDSEWGYV, the amyloid nucleation score result was “inactive”.
For the substance WPIATTMSKGVCVRRVRGRD, the amyloid nucleation score is -0.411 ± 0.69.
As for FLAYGWWHYKWSGNDTLHSF, the amyloid nucleation score result is “inactive”.
VTRMDGYVAFISNHSFKSVY came in with an amyloid nucleation score of 1.36 ± 0.14.
As to RMHMKLVGKG, the amyloid nucleation score entry is “inactive”.
For WGLRFFIWQPRDMFSACCTC, the amyloid nucleation score stood at 1.6 ± 0.11.
With LVWRTSINSLRMVEDNRDEV, the amyloid nucleation score result is “inactive”.
The result for WFAWIH reads “inactive”; that for QVLASTNATESCRIDRDTVV, “inactive”; that for VAMVSGIG, “inactive”.
For CNLDLVANT, the amyloid nucleation score entry was “inactive”.
With LQSRF, the amyloid nucleation score result was “inactive”.
With FCSRYWLYLCRALLNRVVMR, the amyloid nucleation score entry was “inactive”.
With AHEQTQSDLPGVELPRWDR, the amyloid nucleation score entry was “inactive”.
GRSYREIMDSIFCGQFFYNK: the amyloid nucleation score amounted to 2.45 ± 0.077.
KVVVMDCWWNNIYCTDQWVI had an amyloid nucleation score of -0.021 ± 0.22.
Take GAFPRGSS: the amyloid nucleation score entry is “inactive”.
For TEQRMQ, the amyloid nucleation score result was “inactive”.
The result for GGDSPNDARRFFNFHIYNIW reads 2.05 ± 0.08.
